Laboratory results published in the RNAGym collection of RNA variant scans (doi:10.1073/pnas.2313332121).

B1: TPR t1 (parent)
chain: GACCAAUCUGCCCUCAGAGCUCGAGAACAUCUUCGGAUGCAGAGGAGGCAGGCUUCGGUGGCGCGAUAGCGCCAACGUCCUCAACCUCCAAUGCAUCCCACCACAUGAUGAUGCCUGAAGAGCCUUGGUUUUUUG

Variants of: B1
Assay: polymerase ribozyme fitness, log enrichment relative to wild type (log ratio); higher = more active; in vitro selection for triplet polymerase activity
Outline: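 Fitness compares each genotype's enrichment to that of the wild type on a logarithmic scale, averaging replicates with inverse-variance weights. The logarithm is base 2. Enrichment came from Illumina sequencing of input and output libraries after one triplicate round of in vitro selection, which included frozen incubation at −7 °C, of PCR-built, transcribed mutant libraries of each subunit of a heterodimeric triplet polymerase ribozyme. Only genotypes with ≥10 input reads and ≥1 read per output were kept.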

Row | Variant | polymerase ribozyme fitness (log ratio)
1 | A43G G61A | -1.27
2 | A43G G61U | -1.45
3 | A43G U130C | -1.1
4 | A43U A50U G60A U112A | -4.39
5 | G42A G63A | -2.56
6 | G42U G61A | -1.21
7 | G42A C70U | -2.09
8 | C40U C86G | -1.6
9 | A41U A46U G63U C115A G120U C123G | -3.28
10 | G42U U87C G128U U133A | -3.75
11 | C40U A119G U126G G127U | -0.212
12 | G42A C94G U130G | -3.82
13 | A43C U87A U106A | -2.43
14 | A43U A111G | -0.575
15 | A43C G113A | -2.91
16 | A41U G69U G120C | 0.831
17 | C40U G71U U92A | -5.4
18 | C40U G107C U109A | -6.59
19 | A43C G60C U131G | -3.6
20 | A41C G93A U112A | -1.27
21 | G42A C56A | -1.64

Row | Variant | polymerase ribozyme fitness (log ratio)
22 | G42A C56G | -1.49
23 | A41C G71U | -0.988
24 | G42A G47A U112A | -1.49
25 | A41U G47A G110U | -5.48
26 | C40U G120C | 0.116
27 | A41C G45U C124A U126G | -1.66
28 | G42U G57U C82U | -1.58
29 | G42C G71C C79U C80U C97A A121U | -6.28
30 | C40U C64U C82G | -1.35
31 | A41G C104U | 0.737
32 | A41U G110C | -4.99
33 | A43C G69U G110A | -1.54
34 | C40U G71A U78G C123G U125C | -1.36
35 | A41U G57A | -1.97
36 | G42U A43C C73U G93A | -2.39
37 | C40U G48U C82A C88A | -3.31
38 | A43C G69A U112C G135A | -4.59
39 | G42C C62U U131C | -1.44
40 | A41U A50G G77A | -0.647
41 | C40U G117A | -1.87
42 | C40U G113A | -1.41

Row | Variant | polymerase ribozyme fitness (log ratio)
43 | A43G A66G | -4.35
44 | C40U C62U A95G | -0.773
45 | C40U C104A A119G | -1.84
46 | C40U C53U | -0.572
47 | G42C G71U G77C A100U | -3.33
48 | A41U C53A C114G | -1.85
49 | G42U A43C G69C A74U U87G C89G | -5.66
50 | C40U G42A C56A C76G G93U C114G | -4.34
51 | C40U G122A | -1.22
52 | G42C G47U | -4.02
53 | A41C A91U A95C G113A | -3.38
54 | A41G C64A | -7.34
55 | G42A G48A G69A | -6.28
56 | G42A U96C | -2.41
57 | A43G G113U | -2.72
58 | A43G G113C | -3
59 | A43C C72U A100U U130G | -4.41
60 | G42C U109C | -6.86
61 | A41C G113C C124U | -3.22
62 | C40U U54A | -0.773
63 | A41U A43C C79U C80U C124U | -4.76

Row | Variant | polymerase ribozyme fitness (log ratio)
64 | A41G G61U U96A A105U U133C | -6.14
65 | A43C U125A | -2
66 | A43C G77U C85G | -4.12
67 | A43G C73G A75C U112A | -3.33
68 | C40U C82G | -1.54
69 | A41U C53A G58A | -1.32
70 | G42C G44A A50C C82U C85U | -3.31
71 | G42C C62U | -2.97
72 | A41U G60A C80U | -3.75
73 | A41U A46U | -2.26
74 | A43G C76U U109G | -6.79
75 | A41G C53A C64A A121G | -4.97
76 | A41G G57A G77U C123A G128C | -2.56
77 | G42U G52A A75G C101U | -0.635
78 | C40U C115A G128A | -2.68
79 | G42C U55A G63U C101U | -3.41
80 | A41C C80A G107A G117U U129C | -7.66
81 | A41C C80G A121G U132A | -4.51
82 | A41U G61A G127C | -2.63
83 | A41C G69U | -0.161
